From paper PMC3537517, “In vitro substrate phosphorylation by Ca^2+/calmodulin-dependent protein kinase kinase using guanosine-5^′-triphosphate as a phosphate donor” (BMC Biochemistry, 2012)

Columns and labels:
CaMKKα = target: T1, CaMKKα (Rattus norvegicus, UniProt P97756); test: […]-GTP kinase assay with GST-CaMKIα ([…]-293, K49E); Lineweaver-Burk; format: biochemical
T1 construct: gene Camkk1; recombinant CaMKKα purified from E. coli; with calmodulin (Ca2+/CaM)

CaMKKβ = target: T2, CaMKKβ (Rattus norvegicus, UniProt O88831); test: as above; format: biochemical
T2 construct: gene Camkk2; recombinant CaMKKβ purified from E. coli; with calmodulin (Ca2+/CaM)
T2 sequence (O88831 2-587): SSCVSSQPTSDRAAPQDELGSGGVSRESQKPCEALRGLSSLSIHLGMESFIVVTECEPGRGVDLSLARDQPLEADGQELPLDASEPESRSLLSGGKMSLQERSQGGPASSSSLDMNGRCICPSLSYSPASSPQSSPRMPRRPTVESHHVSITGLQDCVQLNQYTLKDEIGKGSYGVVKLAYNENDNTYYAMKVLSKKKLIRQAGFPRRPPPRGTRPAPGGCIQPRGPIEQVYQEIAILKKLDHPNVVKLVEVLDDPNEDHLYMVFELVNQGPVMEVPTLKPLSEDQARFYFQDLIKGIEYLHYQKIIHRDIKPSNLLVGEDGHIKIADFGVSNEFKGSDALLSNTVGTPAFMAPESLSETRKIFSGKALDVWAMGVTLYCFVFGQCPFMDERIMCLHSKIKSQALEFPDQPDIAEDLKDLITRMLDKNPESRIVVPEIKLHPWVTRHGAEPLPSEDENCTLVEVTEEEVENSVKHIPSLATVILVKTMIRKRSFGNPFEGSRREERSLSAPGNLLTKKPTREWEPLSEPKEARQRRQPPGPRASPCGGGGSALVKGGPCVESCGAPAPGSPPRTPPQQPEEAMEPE

[1] = tested on: Nc1nc2c(ncn2[C@@H]2O[C@H](COP(=O)(O)OP(=O)(O)OP(=O)(O)O)[C@@H](O)[C@H]2O)c(=O)[nH]1; test: purified protein; details: Mg2+, Ca2+ phosphate donor; STO-609 competes with GTP; 30.0 °C
[2] = tested on: Nc1ncnc2c1ncn2[C@@H]1O[C@H](COP(=O)(O)OP(=O)(O)OP(=O)(O)O)[C@@H](O)[C@H]1O; test: purified protein; details: Mg2+, Ca2+ phosphate donor; 30.0 °C

T1 sequence (P97756 whole entry): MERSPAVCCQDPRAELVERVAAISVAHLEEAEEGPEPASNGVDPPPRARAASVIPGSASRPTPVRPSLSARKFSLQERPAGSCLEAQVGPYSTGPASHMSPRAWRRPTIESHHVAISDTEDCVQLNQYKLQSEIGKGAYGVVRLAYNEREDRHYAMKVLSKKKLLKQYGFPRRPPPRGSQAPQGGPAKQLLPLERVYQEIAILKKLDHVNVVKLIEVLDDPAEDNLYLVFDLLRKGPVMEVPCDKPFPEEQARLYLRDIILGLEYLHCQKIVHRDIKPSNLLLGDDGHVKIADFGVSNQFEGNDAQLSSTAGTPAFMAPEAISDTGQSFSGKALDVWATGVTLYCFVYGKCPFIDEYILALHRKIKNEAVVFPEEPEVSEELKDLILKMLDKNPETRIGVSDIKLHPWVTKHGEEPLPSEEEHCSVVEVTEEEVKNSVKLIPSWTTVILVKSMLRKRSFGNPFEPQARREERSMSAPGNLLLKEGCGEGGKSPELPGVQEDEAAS

O=C(O)c1ccc2c3c1cccc3c(=O)n1c3ccccc3nc21 [STO-609, 7H-benzimidazo[2,1-a]benz[de]isoquinoline-7-one-3-carboxylic acid]
IC50 (CaMKKα): 255 nM
IC50 (CaMKKβ): 38.2 nM

CaMKKα (Rattus norvegicus)
Km [1]: 444 µM
Vmax [1]: 0.312 µmol/min/mg
Km [2]: 15 µM
Vmax [2]: 0.625 µmol/min/mg

CaMKKβ (Rattus norvegicus)
Km [1]: 507 µM
Vmax [1]: 0.077 µmol/min/mg
Km [2]: 15 µM
Vmax [2]: 0.286 µmol/min/mg
